Results taken from patent publication US20070110760A1.

Target: Syk kinase (endogenous, in cell lysates) (not stated (endogenous in murine NMuMG cells and in Bal-17 B cells)) (UniProt P48025)
Experiment: co-immunoprecipitation in the presence of tyrosine phosphatase inhibitors, NMuMG lysates, three independent experiments

Sequence of Syk kinase (endogenous, in cell lysates) (not stated (endogenous in murine NMuMG cells and in Bal-17 B cells)) (P48025 whole entry): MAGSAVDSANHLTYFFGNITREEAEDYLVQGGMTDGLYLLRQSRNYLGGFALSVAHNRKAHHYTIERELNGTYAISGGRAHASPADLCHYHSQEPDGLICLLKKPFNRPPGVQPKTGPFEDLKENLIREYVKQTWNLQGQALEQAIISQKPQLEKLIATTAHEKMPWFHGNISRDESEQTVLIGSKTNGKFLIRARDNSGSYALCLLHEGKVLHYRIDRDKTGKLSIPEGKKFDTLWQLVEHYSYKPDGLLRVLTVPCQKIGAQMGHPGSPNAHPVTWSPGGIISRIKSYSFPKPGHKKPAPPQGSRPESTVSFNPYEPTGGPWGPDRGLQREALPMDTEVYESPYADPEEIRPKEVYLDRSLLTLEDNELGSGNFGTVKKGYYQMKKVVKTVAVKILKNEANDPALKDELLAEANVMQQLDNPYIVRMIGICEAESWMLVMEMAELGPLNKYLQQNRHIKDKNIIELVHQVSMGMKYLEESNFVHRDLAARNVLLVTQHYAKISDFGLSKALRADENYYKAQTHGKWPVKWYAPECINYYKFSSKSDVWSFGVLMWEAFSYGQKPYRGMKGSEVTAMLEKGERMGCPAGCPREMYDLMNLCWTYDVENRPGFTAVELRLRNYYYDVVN

In the case of “MMTV Env surface unit (SU or gp52), unmutated envelope (from UniProt P03374 99-454)”, the percent of SU co-immunoprecipitated with Syk is reported as less than 34%.
